Laboratory results published in publication PMC10663505 (Nature Communications, 2023).

Target: the molecule itself
Assay: native gel or EMSA

B1: phosphorylated TBK1 (Native-PAGE of Supplementary Fig. S8a) (enzyme, UniProt Q9WUN2 1-729, looked up)
chain: MQSTSNHLWLLSDILGQGATANVFRGRHKKTGDLYAVKVFNNISFLRPVDVQMREFEVLKKLNHKNIVKLFAIEEETTTRHKVLIMEFCPCGSLYTVLEEPSNAYGLPESEFLIVLRDVVGGMNHLRENGIVHRDIKPGNIMRVIGEDGQSVYKLTDFGAARELEDDEQFVSLYGTEEYLHPDMYERAVLRKDHQKKYGATVDLWSVGVTFYHAATGSLPFRPFEGPRRNKEVMYKIITGKPSGAISGVQKAENGPIDWSGDMPLSCSLSQGLQALLTPVLANILEADQEKCWGFDQFFAETSDVLHRMVIHVFSLQHMTAHKIYIHSYNTAAVFHELVYKQTKIVSSNQELIYEGRRLVLELGRLAQHFPKTTEENPIFVTSREQLNTVGLRYEKISLPKIHPRYDLDGDASMAKAVTGVVCYACRTASTLLLYQELMRKGVRWLVELVKDDYNETVHKKTEVVITLDFCIRNIEKTVKVYEKLMKVNLEAAELGEISDIHTKLLRLSSSQGTIESSLQDISSRLSPGGLLADTWAHQEGTHPRDRNVEKLQVLLNCITEIYYQFKKDKAERRLAYNEEQIHKFDKQKLYYHATKAMSHFSEECVRKYEAFKDKSEEWMRKMLHLRKQLLSLTNQCFDIEEEVSKYQDYTNELQETLPQKMLAASGGVKHAMAPIYPSSNTLVEMTLGMKKLKEEMEGVVKELAENNHILERFGSLTMDGGLRNVDCL
modifications: phosphorylated (detected with the anti-phosphorylated TBK1 antibody)
notes: probably endogenous mouse TBK1
Question: With B1 as the protein, how does the “stoichiometry N” value read?
Answer: Its value is 2.
